Measurements published in US11072592B2, “Small molecules that enable cartilage rejuvenation” (The Regents of the University of California, priority 2015, dated 2021).

Experiments:
[1] = system: pSTAT3 and MYC; assay: Western blot of pSTAT3 and MYC in adult pig articular chondrocytes; type: cell-based; conditions: adult pig articular chondrocytes; for ability of both LIF and RCGD 423 to induce increases in pSTAT3 and MYC: inhibitor plus LIF or RCGD 423; for levels of MYC / levels of pSTAT3: treated vs untreated, relative to histone H3
Source text: Only early passages of chondrocytes (passage 0-2) were used for experimentation to avoid de-differentiation and loss of cartilage phenotype (Wu et al., 2014). Cartilage explants were made using 1, 2 or 8 mm biopsy punch and wet weight of each explant determined prior to experimentation. For cell isolation cartilage tissue was digested as described previously (Wu et al., 2015). Postnatal paraffin embedded joint and growth plate specimens were kindly donated by Dr Marcel Karperien from the University of Twente (Netherlands) and Dr Nick Bernthal from University of California Los Angeles. All donated material was anonymous and carried no personal identifiers. Cell culture reagents were purchased from Life Technologies, Inc. (Grand Island, N.Y.). Growth factors LIF, OSM, IL-6, TNF-α, IL-1β were purchased from Life Technologies, Inc (Grand Island, N.Y.). STATTIC, 10058-F4, SCl44 hydrochloride, and CP-690550 were purchased from Sigma Aldrich (St. Louis, Mo.). RCGD 423 (N-(4-Bromophenyl)-4-phenyl-1,3-thiazol-2-amine) was synthesized and provided by MolPort (Riga, Latvia). Fetal, adult and pig chondrocytes were cultured in DMEM F12 medium containing 10% (vol/vol) fetal bovine serum and 1% Penicillin-Streptomycin (vol/vol) at 37° C. in a humidified atmosphere of 95% aid and 5% CO2. Media was replenished with DMEM F12 medium containing 1% (vol/vol) fetal bovine serum and 1% Penicillin-Streptomycin (vol/vol) once treatments were added. For 3-dimensional (3D) cell cultures adult human articular chondrocytes were incubated with or without RCGD 423 using 10% solution of Mebiol® hydrogel from Cosmo Bio (Carlsbad, Calif.) in X-vivo 15 serum free medium from Lonza (Walkersville, Md.) as described previously (Wu et al., 2014).
(§1) Treated and non-treated ells were lysed in RIPA Lysis and Extraction Buffer (Pierce, Rockford, Ill.) containing protease inhibitors (Pierce) followed by sonication with a 15-second pulse at a power output of 2 using the VirSonic 100 (SP Industries Company, Warminster, Pa.). Protein concentrations were determined by BCA protein assay (Pierce). Proteins were resolved with SDS-PAGE utilizing 4-15% Mini-PROTEAN TGX Precast Gels and transferred to Trans-Blot Turbo Transfer Packs with a 0.2-μm pore-size nitrocellulose membrane. The SDS-PAGE running buffer, 4-15% Mini-PROTEAN TGX Precast Gels, Trans-Blot Turbo Transfer Packs with a 0.2-μm pore-size nitrocellulose membrane were purchased from Biorad (Hercules, Calif.). Nitrocellulose membranes were blocked in 5% nonfat milk in 0.05% (v/v) Tween 20 (PBST) (Corning, Manassas, Va.). Membranes were then incubated with primary antibodies phospho-STAT3 (#9131), MYC (#5605), NF-κB p65 (#D14E12), pAKT (#9272) Histone 3 (#9715) from Cell Signaling, (Danvers, Mass.); MEK1/2 (ab70613) and p38 (ab795) from Abcam (Cambridge, Mass.) overnight. After washing in PBS containing 0.05% (v/v) Tween 20 (PBST), membranes were incubated with Goat anti-Rabbit IgG (H+L) Secondary Antibody (Thermo Scientific Rockford, Ill.). After washing, membranes were developed with the Clarity Western ECL Blotting Substrate (Hercules, Calif.).

[2] = system: cartilage explants; assay: Cartilage explant culture: tissue expansion, COL2 and GAG content; type: cell-based, pig; conditions: cartilage explants/plugs in culture
Source text: The same stimulatory effect was achieved after treatment of explants with CRMs identified in our small molecule screen. […] This can test if activation of p-STAT3 and c-MYC by selected small molecules CRM-398 and -423 can result in in situ expansion of articular cartilage tissue.
Mature articular cartilage is comprised of chondrocytes contained within lacunae surrounded by dense extracellular matrix. In order for a regenerative response to occur, proliferation, survival and migration must all proceed in concert. […] We designed two sets of experiments to assess the ability of RCGD 423 to operate in this capacity. First, RCGD 423 or cytokines implicated in the growth and differentiation of articular cartilage were incubated with small plugs of cartilage tissue; after 5 weeks, the amount of COL2 and glycosaminoglycans (GAGs) were determined.
Cartilage explants were washed with PBS and then directly digested or stored at […]. For digestion, explants were transferred in digestion buffer composed of 1 mg/mL proteinase K in Tris/Ethylene diamine tetra-acetic acid (EDTA) buffer (pH 7.6) containing 18.5 μg/mL iodoacetamide and 1 μg/mL pepstatin A) for 16-72 h at 56° C. After complete digestion the GAG content was spectrophotometrically determined with 1,9-dimethylmethylene blue chloride staining in the phosphate buffer with ethylene diamine tetra-acetic acid buffer (14.2 g/L Na2HPO4 and 3.72 g/L Na2EDTA, pH 6.5) using an Infinite M1000 Pro microplate reader (Tecan) at an absorbance of 520 nm with chondroitin sulfate as a standard. Amount of total DNA in explants was determined by a CyQuant DNA Kit (Molecular Probes by Life Technology) using Qubit 1.0 fluorometer (Invitrogen).
Cultured explants were first digested in testicular hyaluronidase (0.05% in 50 mM HEPES) for 2 hours at 37° C. 0.5M glacial acetic acid was added to digestion solution to maximize the collagen swelling and provide best pepsin access. Pepsin (250 μg/ml) was then used to further digest the pellets in combination with rotation and occasional gentle vortexing at 4° C. for 18-24 hours. Cold tris base and NaOH were added to the digestion solution to neutralize the acetic acid. Digestion solution was vigorously vortexed immediately, and subsequently rotated at 4° C. overnight to maximize collagen solubility. Tubes were centrifuged to separate undigested tissue and supernatant. Any undigested tissue was subjected to the digestion process again. All supernatants were combined for ELISA. Concentration of collagen II in the supernatant was measured by Type I/II Collagen Detection Kit (Chondrex, Inc, Redmond, Wash.), according to manufacturer's instruction and normalized either to DNA content or wet weight of the explants determined prior to experimentation.

[3] = system: pSTAT3 and MYC; assay: Western blot of pSTAT3 and MYC in human fetal articular chondrocytes; type: cell-based; conditions: 72 hours
Source text: Moreover, LIFR expression is localized to chondrocytes in the superficial zone of articular cartilage throughout ontogeny. In contrast, LIF expression is strongest during fetal development and then diminishes over time (Table S1). […] LIF signals through a heterodimeric receptor comprised of LIFR and gp130 (IL6RST); upon binding extracellular ligand, both receptors are phosphorylated and recruit members of the JAK family which in turn phosphorylate STAT3 (pSTAT3). pSTAT3 then enters the nucleus to act as a transcriptional regulator. […] We first performed ELISA on human fetal and adult synovial fluid to determine if LIF protein levels change over time. […] Western blot analysis of the downstream effectors of LIF signaling, pSTAT3 and MYC, further supported reduced levels of LIF signaling in adult articular cartilage (FIG. 26A). We then confirmed that adolescent and adult articular chondrocytes in the superficial zone express both receptors required for LIF signaling (FIG. 33) and that these cells are the most anabolic of adult chondrocytes (FIGS. 34A-34B). Because STAT3 and MYC can respond to a variety of stimuli, we next wanted to determine if the increased levels of pSTAT3 and MYC in fetal cells were a direct result of increased LIF/LIFR signaling.
as §1

[4] = system: MAPK, AKT, NF-κB pathways; assay: Western blot of MAPK, AKT and NF-κB signaling in adult pig articular chondrocytes; type: cell-based; conditions: 24 hours
Method: FIGS. 30A-30B. […] (FIG. 30A) Adult pig articular chondrocytes were cultured for 24 hours with the indicated cytokines or RCGD 423 and the levels of pSTAT3 and MYC were measured with respect to histone H3. Representative data for other proteins in the MAPK (p38 and MEK1/2), AKT (phospho-AKT; pAKT) or NF-KB (NF-KB p65) are also shown. (FIG. 30B) Levels of transcription of genes indicative of a catabolic response were determined via quantitative PCR in adult pig articular chondrocytes treated with OSM, IL-6, TNF-α, LIF or RCGD 423. Data are represented at mean±SD.
Cartilage degeneration is generally considered a feed-forward process, in which small losses of chondrocytes result in microenvironmental changes including induction of an inflammatory response and other pro-catabolic events (Hunziker, 2002). In turn, these alterations in the joint milieu promote production of matrix degrading proteins including MMPs (collagenases) and proteins of the ADAMTS family (aggrecanases). LIF has been implicated in promoting this cycle of matrix destruction during the pathogenesis of osteoarthritis (Hui et al., 2000; Lotz et al., 1992), although its role in this process has been controversial. In order to better understand the mechanism of action of LIF, RCGD 423 and known pro-inflammatory cytokines in the promotion of degeneration, we stimulated adult pig articular chondrocytes with these molecules and quantitated the levels of activated downstream proteins that mediate the cellular signaling response (FIG. 30A).
as §1

C[C@@H]1CCN(C(=O)CC#N)C[C@@H]1N(C)c1ncnc2[nH]ccc12 [JAK inhibitor, reference compound]
ability of both LIF and RCGD 423 to induce increases in pSTAT3 and MYC [1]: greatly reduced

Cl.O=C(NNc1nc2cc(F)ccc2n2cccc12)c1cnccn1 [gp130 inhibitor, reference compound]
ability of both LIF and RCGD 423 to induce increases in pSTAT3 and MYC [1]: greatly reduced

TGF-beta 1: morphogen
expansion of cartilage tissue in explants [2]: little or no effect

B1: sLIFR: soluble LIFR, which binds and sequesters LIF (protein, UniProt P42702 45-833, looked up)
extracellular domain: QKKGAPHDLKCVTNNLQVWNCSWKAPSGTGRGTDYEVCIENRSRSCYQLEKTSIKIPALSHGDYEITINSLHDFGSSTSKFTLNEQNVSLIPDTPEILNLSADFSTSTLYLKWNDRGSVFPHRSNVIWEIKVLRKESMELVKLVTHNTTLNGKDTLHHWSWASDMPLECAIHFVEIRCYIDNLHFSGLEEWSDWSPVKNISWIPDSQTKVFPQDKVILVGSDITFCCVSQEKVLSALIGHTNCPLIHLDGENVAIKIRNISVSASSGTNVVFTTEDNIFGTVIFAGYPPDTPQQLNCETHDLKEIICSWNPGRVTALVGPRATSYTLVESFSGKYVRLKRAEAPTNESYQLLFQMLPNQEIYNFTLNAHNPLGRSQSTILVNITEKVYPHTPTSFKVKDINSTAVKLSWHLPGNFAKINFLCEIEIKKSNSVQEQRNVTIKGVENSSYLVALDKLNPYTLYTFRIRCSTETFWKWSKWSNKKQHLTTEASPSKGPDTWREWSSDGKNLIIYWKPLPINEANGKILSYNVSCSSDEETQSLSEIPDPQHKAEIRLDKNDYIISVVAKNSVGSSPPSKIASMEIPNDDLKIEQVVGMGKGILLTWHYDPNMTCDYVIKWCNSSRSEPCLMDWRKVPSNSTETVIESDEFRPGIRYNFFLYGCRNQGYQLLRSMIGYIEELAPIVAPNFTVEDTSADSILVKWEDIPVEELRGFLRGYLFYFGKGERDTSKMRVLESGRSDIKVKNITDISQKTLRIADLQGKTSYHLVLRAYTDGGVGPEKSMYVVTKENS
modifications: extracellular domain
levels of MYC [3]: substantially reduced | levels of pSTAT3 [3]: substantially reduced | levels of MYC ([3]; listed as LIFR): reduces | levels of pSTAT3 ([3]; listed as LIFR): reduces | levels of MYC ([3]; listed as soluble LIF receptor): reduces | levels of pSTAT3 ([3]; listed as soluble LIF receptor): reduces

B2: BMP4: driver of chondrocyte hypertrophy (protein, UniProt P12644 293-408, looked up)
Bone morphogenetic protein 4: SPKHHSQRARKKNKNCRRHSLYVDFSDVGWNDWIVAPPGYQAFYCHGDCPFPLADHLNSTNHAIVQTLVNSVNSSIPKACCVPTELSAISMLYLDEYDKVVLKNYQEMVVEGCGCR
expansion of cartilage tissue in explants [2]: little or no effect

B3: GDF5: BMPR1B ligand (protein, UniProt P43026 382-501, looked up)
Growth/differentiation factor …: APLATRQGKRPSKNLKARCSRKALHVNFKDMGWDDWIIAPLEYEAFHCEGLCEFPLRSHLEPTNHAVIQTLMNSMDPESTPPTCCVPTRLSPISILFIDSANNVVYKQYEDMVVESCGCR
expansion of cartilage tissue in explants [2]: little or no effect

B4: OSM: IL-6 family cytokine oncostatin M (protein, UniProt P13725 26-221, looked up)
Oncostatin-M: AAIGSCSKEYRVLLGQLQKQTDLMQDTSRLLDPYIRIQGLDVPKLREHCRERPGAFPSEETLRGLGRRGFLQTLNATLGCVLHRLADLEQRLPKAQDLERSGLNIEDLEKLQMARPNILGLRNNIYCMAQLLDNSDTAEPTKAGRGASQPPTPTPASDAFQRKLEGCRFLHGYHRFMHSVGRVFSKWGESPNRSRR
levels of MYC [1]: does not elicit any upregulation | levels of pSTAT3 [1]: does not elicit any upregulation | pro-inflammatory response [4]: strong pro-inflammatory response

B5: IL-la: inflammatory cytokine (protein, UniProt P01583 113-271, looked up)
Interleukin-1 alpha: SAPFSFLSNVKYNFMRIIKYEFILNDALNQSIIRANDQYLTAAALHNLDEAVKFDMGAYKSSKDDAKITVILRISKTQLYVTAQDEDQPVLLKEMPEIPKTITGSETNLLFFWETHGTKNYFTSVAHPNLFIATKQDYWVCLAGGPPSITDFQILENQA
levels of MYC [1]: inhibit accumulation | levels of pSTAT3 [1]: inhibit accumulation
